# According to IntAct's records for PubMed 17158164:
# B1: TATA-box-binding protein (Homo sapiens), P20226 (parent)
# chain: MDQNNSLPPYAQGLASPQGAMTPGIPIFSPMMPYGTGLTPQPIQNTNSLSILEEQQRQQQQQQQQQQQQQQQQQQQQQQQQQQQQQQQQQQQQQQAVAAAAVQQSTSQQATQGTSGQAPQLFHSQTLTTAPLPGTTPLYPSPMTPMTPITPATPASESSGIVPQLQNIVSTVNLGCKLDLKTIALRARNAEYNPKRFAAVIMRIREPRTTALIFSSGKMVCTGAKSEEQSRLAARKYARVVQKLGFPAKFLDFKIQNMVGSCDVKFPIRLEGLVLTHQQFSSYEPELFPGLIYRMIKPRIVLLIFVSGKVVLTGAKVRAEIYEAFENIYPILKGFRKTT
# partner: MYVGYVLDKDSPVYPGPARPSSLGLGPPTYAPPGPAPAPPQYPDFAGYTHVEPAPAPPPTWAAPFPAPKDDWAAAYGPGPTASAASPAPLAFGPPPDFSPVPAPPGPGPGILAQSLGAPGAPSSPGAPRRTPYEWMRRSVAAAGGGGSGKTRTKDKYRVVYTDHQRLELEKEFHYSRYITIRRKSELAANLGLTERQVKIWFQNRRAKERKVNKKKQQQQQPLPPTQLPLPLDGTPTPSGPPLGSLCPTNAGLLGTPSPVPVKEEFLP
# Variants of: B1
# Settings: with cdx1_mouse Cdx1, P18111
row,effect of a mutation on the interaction,Variant
1,with no effect,MDQNNSLPPYAQGLASPQGAMTPGIPIFSPMMPYGTGLTPQPIQNTNSLSILEEQQRQQQQQQQQQQQQQQQQQQQQQQQQQQQQQQQQQQQQQQAVAAAAVQQSTSQQATQGTSGQAPQLFHSQTLTTAPLPGTTPLYPSPMTPMTPITPATPASESSGIVPQLQNIVSTVNLGCKLDLKTIALRARNAEYNPKRFAAVIMRIREPRTTALIFSSGKMVCTGAKSEEQSRLAARKYARVVQKLGFPAKFLDFKIQNMVGSCDVKFPIRLEGLVLTHQQFSSYEPELFPGLFYRMIKPRITLVIFVSGKVVLTGAKVRAEIYEAFENIYPILKGFRKTT [I292F;V301T;L303V]
